Experimental data from the supplement of paper PMC9112550, “Optimization of the antimicrobial peptide Bac7 by deep mutational scanning” (BMC Biology, 2022).
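Also: peptides expressed intracellularly from a pBAD plasmid library in pooled LB shake-flask culture, induced with 0.3% L-arabinose, DNA abundance read by NGS, three biological replicates, DESeq2 with apeglm shrinkage.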

The sequences below were run on Escherichia coli TOP10 (assay: shrunken log2 fold change of peptide-encoding DNA abundance (4.5 h post-induction vs induction); higher = less antimicrobial activity (less host growth inhibition)). Details: time post-induction: 4.5 h; library: site-saturation at positions 5, 18, 19, 20.
With RRIRWRPPRLPRPRPRPRYAPRP the “shrunken log2 fold change” value was 0.32. In the case of RRIRWRPPRLPRPRPRPSAAPRP, the “shrunken log2 fold change” value is reported as 0.921. In the case of RRIRWRPPRLPRPRPRPSASPRP, the “shrunken log2 fold change” value is reported as 0.363. For RRIRWRPPRLPRPRPRPSCFPRP, the “shrunken log2 fold change” value was 0.486. In the case of RRIRWRPPRLPRPRPRPSDIPRP, the “shrunken log2 fold change” value is reported as -0.031. In the case of RRIRWRPPRLPRPRPRPSEFPRP, the “shrunken log2 fold change” value is reported as 0.144. RRIRWRPPRLPRPRPRPSFFPRP was tested, and the “shrunken log2 fold change” value was 0.0041. With RRIRWRPPRLPRPRPRPSFPPRP the “shrunken log2 fold change” value was -0.0295. RRIRWRPPRLPRPRPRPSGKPRP was tested, and the “shrunken log2 fold change” value was -0.0778. In the case of RRIRWRPPRLPRPRPRPSGLPRP, the “shrunken log2 fold change” value is reported as 0.155. With RRIRWRPPRLPRPRPRPSGSPRP the “shrunken log2 fold change” value was 0.316. RRIRWRPPRLPRPRPRPSHGPRP was tested, and the “shrunken log2 fold change” value was -0.583. For RRIRWRPPRLPRPRPRPSHQPRP, the “shrunken log2 fold change” value was -0.0408. RRIRWRPPRLPRPRPRPSHVPRP was tested, and the “shrunken log2 fold change” value was -0.167. In the case of RRIRWRPPRLPRPRPRPSIRPRP, the “shrunken log2 fold change” value is reported as -0.613. RRIRWRPPRLPRPRPRPSISPRP was tested, and the “shrunken log2 fold change” value was -0.283. With RRIRWRPPRLPRPRPRPSKVPRP the “shrunken log2 fold change” value was -0.04. For RRIRWRPPRLPRPRPRPSMGPRP, the “shrunken log2 fold change” value was 0.033. RRIRWRPPRLPRPRPRPSMPPRP was tested, and the “shrunken log2 fold change” value was -0.423. RRIRWRPPRLPRPRPRPSMYPRP was tested, and the “shrunken log2 fold change” value was -0.326. For RRIRWRPPRLPRPRPRPSNCPRP, the “shrunken log2 fold change” value was -0.0121. In the case of RRIRWRPPRLPRPRPRPSNKPRP, the “shrunken log2 fold change” value is reported as -0.403. For RRIRWRPPRLPRPRPRPSNTPRP, the “shrunken log2 fold change” value was -0.355. With RRIRWRPPRLPRPRPRPSPFPRP the “shrunken log2 fold change” value was -0.245. For RRIRWRPPRLPRPRPRPSPWPRP, the “shrunken log2 fold change” value was 0.0588. RRIRWRPPRLPRPRPRPSQEPRP was tested, and the “shrunken log2 fold change” value was 0.0253. For RRIRWRPPRLPRPRPRPSQLPRP, the “shrunken log2 fold change” value was -0.375. For RRIRWRPPRLPRPRPRPSRKPRP, the “shrunken log2 fold change” value was 0.244. With RRIRWRPPRLPRPRPRPSSGPRP the “shrunken log2 fold change” value was -0.00985. For RRIRWRPPRLPRPRPRPSYCPRP, the “shrunken log2 fold change” value was 0.366. For RRIRWRPPRLPRPRPRPSYFPRP, the “shrunken log2 fold change” value was 1.15. With RRIRWRPPRLPRPRPRPSYGPRP the “shrunken log2 fold change” value was -0.503. In the case of RRIRWRPPRLPRPRPRPSYNPRP, the “shrunken log2 fold change” value is reported as -0.343. For RRIRWRPPRLPRPRPRPTAIPRP, the “shrunken log2 fold change” value was 0.806. For RRIRWRPPRLPRPRPRPTALPRP, the “shrunken log2 fold change” value was 0.257. RRIRWRPPRLPRPRPRPTDHPRP was tested, and the “shrunken log2 fold change” value was -0.307. With RRIRWRPPRLPRPRPRPTDLPRP the “shrunken log2 fold change” value was 0.0776. RRIRWRPPRLPRPRPRPTEGPRP was tested, and the “shrunken log2 fold change” value was 0.0765. For RRIRWRPPRLPRPRPRPTEIPRP, the “shrunken log2 fold change” value was -0.22. In the case of RRIRWRPPRLPRPRPRPTFQPRP, the “shrunken log2 fold change” value is reported as 0.131. With RRIRWRPPRLPRPRPRPTHTPRP the “shrunken log2 fold change” value was -0.252. In the case of RRIRWRPPRLPRPRPRPTINPRP, the “shrunken log2 fold change” value is reported as -0.303. In the case of RRIRWRPPRLPRPRPRPTKGPRP, the “shrunken log2 fold change” value is reported as 0.469. RRIRWRPPRLPRPRPRPTKKPRP was tested, and the “shrunken log2 fold change” value was 0.0726. In the case of RRIRWRPPRLPRPRPRPTKPPRP, the “shrunken log2 fold change” value is reported as 0.184. With RRIRWRPPRLPRPRPRPTKVPRP the “shrunken log2 fold change” value was -0.0596. With RRIRWRPPRLPRPRPRPTLLPRP the “shrunken log2 fold change” value was 0.104. With RRIRWRPPRLPRPRPRPTLMPRP the “shrunken log2 fold change” value was 0.479. With RRIRWRPPRLPRPRPRPTNNPRP the “shrunken log2 fold change” value was 0.0375. In the case of RRIRWRPPRLPRPRPRPTSIPRP, the “shrunken log2 fold change” value is reported as -0.22. For RRIRWRPPRLPRPRPRPTTGPRP, the “shrunken log2 fold change” value was 0.384. With RRIRWRPPRLPRPRPRPTTTPRP the “shrunken log2 fold change” value was 0.567. RRIRWRPPRLPRPRPRPTTVPRP was tested, and the “shrunken log2 fold change” value was 0.11. RRIRWRPPRLPRPRPRPTVKPRP was tested, and the “shrunken log2 fold change” value was -0.0974. For RRIRWRPPRLPRPRPRPTWTPRP, the “shrunken log2 fold change” value was 0.303. For RRIRWRPPRLPRPRPRPTYDPRP, the “shrunken log2 fold change” value was 1.48. For RRIRWRPPRLPRPRPRPVDHPRP, the “shrunken log2 fold change” value was 0.0245. With RRIRWRPPRLPRPRPRPVDQPRP the “shrunken log2 fold change” value was 0.168. RRIRWRPPRLPRPRPRPVDRPRP was tested, and the “shrunken log2 fold change” value was -0.0331. In the case of RRIRWRPPRLPRPRPRPVFKPRP, the “shrunken log2 fold change” value is reported as 0.0598. For RRIRWRPPRLPRPRPRPVFNPRP, the “shrunken log2 fold change” value was -0.259. For RRIRWRPPRLPRPRPRPVGMPRP, the “shrunken log2 fold change” value was 0.456. With RRIRWRPPRLPRPRPRPVGSPRP the “shrunken log2 fold change” value was 0.445. In the case of RRIRWRPPRLPRPRPRPVGTPRP, the “shrunken log2 fold change” value is reported as 0.235. For RRIRWRPPRLPRPRPRPVHPPRP, the “shrunken log2 fold change” value was -0.23. For RRIRWRPPRLPRPRPRPVKDPRP, the “shrunken log2 fold change” value was -0.0234. With RRIRWRPPRLPRPRPRPVLNPRP the “shrunken log2 fold change” value was 0.116. RRIRWRPPRLPRPRPRPVMDPRP was tested, and the “shrunken log2 fold change” value was -0.385. RRIRWRPPRLPRPRPRPVPMPRP was tested, and the “shrunken log2 fold change” value was 0.221. With RRIRWRPPRLPRPRPRPVPVPRP the “shrunken log2 fold change” value was 0.271. With RRIRWRPPRLPRPRPRPVRKPRP the “shrunken log2 fold change” value was 0.167. With RRIRWRPPRLPRPRPRPVSRPRP the “shrunken log2 fold change” value was 0.616. In the case of RRIRWRPPRLPRPRPRPVTEPRP, the “shrunken log2 fold change” value is reported as 0.361. With RRIRWRPPRLPRPRPRPVTMPRP the “shrunken log2 fold change” value was -0.0519. RRIRWRPPRLPRPRPRPVVGPRP was tested, and the “shrunken log2 fold change” value was 0.738. For RRIRWRPPRLPRPRPRPVWEPRP, the “shrunken log2 fold change” value was 0.912. RRIRWRPPRLPRPRPRPVWTPRP was tested, and the “shrunken log2 fold change” value was 0.162. With RRIRWRPPRLPRPRPRPWAAPRP the “shrunken log2 fold change” value was 0.351. RRIRWRPPRLPRPRPRPWARPRP was tested, and the “shrunken log2 fold change” value was 0.135. In the case of RRIRWRPPRLPRPRPRPWCFPRP, the “shrunken log2 fold change” value is reported as -0.0366. RRIRWRPPRLPRPRPRPWCKPRP was tested, and the “shrunken log2 fold change” value was -0.239. RRIRWRPPRLPRPRPRPWEIPRP was tested, and the “shrunken log2 fold change” value was 0.124. For RRIRWRPPRLPRPRPRPWEYPRP, the “shrunken log2 fold change” value was -0.0716. In the case of RRIRWRPPRLPRPRPRPWFLPRP, the “shrunken log2 fold change” value is reported as -0.617. RRIRWRPPRLPRPRPRPWFVPRP was tested, and the “shrunken log2 fold change” value was -0.168. In the case of RRIRWRPPRLPRPRPRPWGGPRP, the “shrunken log2 fold change” value is reported as 0.556. For RRIRWRPPRLPRPRPRPWGTPRP, the “shrunken log2 fold change” value was -0.0421. With RRIRWRPPRLPRPRPRPWHPPRP the “shrunken log2 fold change” value was 0.0551. For RRIRWRPPRLPRPRPRPWHQPRP, the “shrunken log2 fold change” value was 0.00792. With RRIRWRPPRLPRPRPRPWHYPRP the “shrunken log2 fold change” value was -0.0627. With RRIRWRPPRLPRPRPRPWIDPRP the “shrunken log2 fold change” value was -0.049. RRIRWRPPRLPRPRPRPWIFPRP was tested, and the “shrunken log2 fold change” value was -0.679. For RRIRWRPPRLPRPRPRPWIMPRP, the “shrunken log2 fold change” value was -0.0381. In the case of RRIRWRPPRLPRPRPRPWIYPRP, the “shrunken log2 fold change” value is reported as 0.0862. For RRIRWRPPRLPRPRPRPWKMPRP, the “shrunken log2 fold change” value was -0.0467. For RRIRWRPPRLPRPRPRPWMCPRP, the “shrunken log2 fold change” value was -0.174. With RRIRWRPPRLPRPRPRPWMKPRP the “shrunken log2 fold change” value was -0.225. For RRIRWRPPRLPRPRPRPWMNPRP, the “shrunken log2 fold change” value was -0.287. RRIRWRPPRLPRPRPRPWMWPRP was tested, and the “shrunken log2 fold change” value was 0.0359. With RRIRWRPPRLPRPRPRPWMYPRP the “shrunken log2 fold change” value was -0.02. In the case of RRIRWRPPRLPRPRPRPWNMPRP, the “shrunken log2 fold change” value is reported as -0.101. With RRIRWRPPRLPRPRPRPWNNPRP the “shrunken log2 fold change” value was -0.77. In the case of RRIRWRPPRLPRPRPRPWNRPRP, the “shrunken log2 fold change” value is reported as 0.066. In the case of RRIRWRPPRLPRPRPRPWPPPRP, the “shrunken log2 fold change” value is reported as 0.546. In the case of RRIRWRPPRLPRPRPRPWQMPRP, the “shrunken log2 fold change” value is reported as 0.0308. RRIRWRPPRLPRPRPRPWQSPRP was tested, and the “shrunken log2 fold change” value was 0.0143. RRIRWRPPRLPRPRPRPWRLPRP was tested, and the “shrunken log2 fold change” value was -0.172. RRIRWRPPRLPRPRPRPWRTPRP was tested, and the “shrunken log2 fold change” value was 0.0595. RRIRWRPPRLPRPRPRPWSDPRP was tested, and the “shrunken log2 fold change” value was -0.289.
